Biological target: HTLV-1 CA C-terminal domain, HTLV-1 CACTD (A128-L214) (Human T-cell Leukaemia Virus type 1, subtype C, isolate Aus-GM)
Assay: SEC; HTLV-1 CACTD on HiLoad 26/600 Superdex 75 pg, 20 mM HEPES (pH 7.0), 40 mM NaCl; purified as a dimer (Supplementary Fig. 3d)

“HTLV-1 CA C-terminal domain, HTLV-1 CACTD (A128-L214) (domain or fragment)” gave a stoichiometry N of 2.
